{"source": "paper PMC8575881", "about": "“Structure and activation mechanism of the hexameric plasma membrane H^+-ATPase” (Nature Communications, 2021)", "proteins": {"B1": {"name": "SUMO-tagged helix-i (C-terminal 22 residues of Pma1) with an N-terminal 6xHis-SUMO tag and TEV site (domain or fragment, S. cerevisiae, UniProt P05030 897-918, looked up)", "chain": "TRSVEDFMAAMQRVSTQHEKET", "notes": "Pma1, S. cerevisiae, helix-i, the C-terminal 22 amino acids (T897-T918); A TEV protease cleavage site lies between the 6xHis-SUMO tag and the peptide; also called C-terminal helix-I peptide; C-tail helix-i; source: E. coli Rosetta (DE3), pET28a, purified (Ni-beads, Superdex 200 gel filtration); not shown: His6, N-terminal, kept; SUMO, N-terminal, kept"}, "B2": {"name": "S. cerevisiae plasma membrane H+-ATPase Pma1, full length, with a C-terminal triple FLAG epitope (enzyme, UniProt P05030 1-918, looked up)", "chain": "MTDTSSSSSSSSASSVSAHQPTQEKPAKTYDDAASESSDDDDIDALIEELQSNHGVDDEDSDNDGPVAAGEARPVPEEYLQTDPSYGLTSDEVLKRRKKYGLNQMADEKESLVVKFVMFFVGPIQFVMEAAAILAAGLSDWVDFGVICGLLMLNAGVGFVQEFQAGSIVDELKKTLANTAVVIRDGQLVEIPANEVVPGDILQLEDGTVIPTDGRIVTEDCFLQIDQSAITGESLAVDKHYGDQTFSSSTVKRGEGFMVVTATGDNTFVGRAAALVNKAAGGQGHFTEVLNGIGIILLVLVIATLLLVWTACFYRTNGIVRILRYTLGITIIGVPVGLPAVVTTTMAVGAAYLAKKQAIVQKLSAIESLAGVEILCSDKTGTLTKNKLSLHEPYTVEGVSPDDLMLTACLAASRKKKGLDAIDKAFLKSLKQYPKAKDALTKYKVLEFHPFDPVSKKVTAVVESPEGERIVCVKGAPLFVLKTVEEDHPIPEDVHENYENKVAELASRGFRALGVARKRGEGHWEILGVMPCMDPPRDDTAQTVSEARHLGLRVKMLTGDAVGIAKETCRQLGLGTNIYNAERLGLGGGGDMPGSELADFVENADGFAEVFPQHKYRVVEILQNRGYLVAMTGDGVNDAPSLKKADTGIAVEGATDAARSAADIVFLAPGLSAIIDALKTSRQIFHRMYSYVVYRIALSLHLEIFLGLWIAILDNSLDIDLIVFIAIFADVATLAIAYDNAPYSPKPVKWNLPRLWGMSIILGIVLAIGSWITLTTMFLPKGGIIQNFGAMNGIMFLQISLTENWLIFITRAAGPFWSSIPSWQLAGAVFAVDIIATMFTLFGWWSENWTDIVTVVRVWIWSIGIFCVLGGFYYEMSTSEAFDRLMNGKPMKEKKSTRSVEDFMAAMQRVSTQHEKET", "notes": "Plasma membrane H+-ATPase Pma1, S. cerevisiae, 918-residue protein, full length; Co-purified with endogenous lipids; residues 1-110 are disordered in the structures; The FLAG tag is not reported to be removed; also called Pma1-FL; wild-type Pma1; source: endogenous, tagged in the genome of yeast strain BY4742"}, "B3": {"name": "Pma1-ΔC22, helix-i truncated Pma1 with a C-terminal FLAG tag (domain or fragment, S. cerevisiae, UniProt P05030 1-896, looked up)", "chain": "MTDTSSSSSSSSASSVSAHQPTQEKPAKTYDDAASESSDDDDIDALIEELQSNHGVDDEDSDNDGPVAAGEARPVPEEYLQTDPSYGLTSDEVLKRRKKYGLNQMADEKESLVVKFVMFFVGPIQFVMEAAAILAAGLSDWVDFGVICGLLMLNAGVGFVQEFQAGSIVDELKKTLANTAVVIRDGQLVEIPANEVVPGDILQLEDGTVIPTDGRIVTEDCFLQIDQSAITGESLAVDKHYGDQTFSSSTVKRGEGFMVVTATGDNTFVGRAAALVNKAAGGQGHFTEVLNGIGIILLVLVIATLLLVWTACFYRTNGIVRILRYTLGITIIGVPVGLPAVVTTTMAVGAAYLAKKQAIVQKLSAIESLAGVEILCSDKTGTLTKNKLSLHEPYTVEGVSPDDLMLTACLAASRKKKGLDAIDKAFLKSLKQYPKAKDALTKYKVLEFHPFDPVSKKVTAVVESPEGERIVCVKGAPLFVLKTVEEDHPIPEDVHENYENKVAELASRGFRALGVARKRGEGHWEILGVMPCMDPPRDDTAQTVSEARHLGLRVKMLTGDAVGIAKETCRQLGLGTNIYNAERLGLGGGGDMPGSELADFVENADGFAEVFPQHKYRVVEILQNRGYLVAMTGDGVNDAPSLKKADTGIAVEGATDAARSAADIVFLAPGLSAIIDALKTSRQIFHRMYSYVVYRIALSLHLEIFLGLWIAILDNSLDIDLIVFIAIFADVATLAIAYDNAPYSPKPVKWNLPRLWGMSIILGIVLAIGSWITLTTMFLPKGGIIQNFGAMNGIMFLQISLTENWLIFITRAAGPFWSSIPSWQLAGAVFAVDIIATMFTLFGWWSENWTDIVTVVRVWIWSIGIFCVLGGFYYEMSTSEAFDRLMNGKPMKEKKS", "notes": "Plasma membrane H+-ATPase Pma1, S. cerevisiae, lacking helix-i, the last 22 residues (T897-T918) of the 918-residue protein; also called Pma1-△C22; source: S. cerevisiae BY4742 transformed with the PRS423 vector; purified as wild-type Pma1 (anti-FLAG M2, gel filtration)"}}, "key": {"[1]": {"biological_target": "the molecule itself", "assay": "SEC + native gel or EMSA; Superdex 200 10/300 in 20 mM HEPES pH 7.4, 150 mM NaCl; native gel electrophoresis"}, "[2]": {"biological_target": "the molecule itself", "assay": "SEC + native gel or EMSA; Superose 6 10/300 Increase in 20 mM HEPES pH 7.4, 150 mM NaCl, 0.003% LMNG, 0.0003% CHS, 1 mM MgCl2; native PAGE 4-20%, Tris-glycine pH 8.8"}, "[3]": {"biological_target": "the molecule itself", "assay": "SEC + native gel or EMSA; gel filtration of Pma1-ΔC22 by the protocol of wild-type Pma1; fractions 10-16 ml on native PAGE"}}, "data": [{"protein": "B1", "values": [{"measurement": "binding result", "setting": "[1]", "result": "binds"}]}, {"protein": "B2", "values": [{"measurement": "stoichiometry N", "setting": "[2]", "result": 6}]}, {"protein": "B3", "values": [{"measurement": "binding result", "setting": "[3]", "result": "binds"}]}]}
